Experimental data published in patent US11866736B2, “Protein prostheses for mitochondrial diseases or conditions” (The General Hospital Corporation, priority 2015, dated 2024).

Tests used:
[1] = Enzymatic assay of NAD(P)H oxidase activity, NADH as substrate (absorbance at 340); assay type: biochemical
Description: FIGS. 1A-1E illustrate the biochemical properties of LbNOX with a C-terminal FLAG tag and a cleavable N-terminal hexahistidine (Hisx6) tag produced by overexpression in E. coli. Purified LbNOX-FLAG has a yellow color and a UV-visible absorption spectrum (λmax=371 and 444 nm) similar to other FAD-containing enzymes, which can be reduced upon the addition of sodium dithionite (FIG. 1B). (FIG. 1A) Reaction catalyzed by LbNOX. (FIG. 1B) UV-visible spectrum of purified LbNOX. Protein (82.8 μM FAD active sites) in 50 mM NaPi pH 7.5, 150 mM NaCl after purification in oxidized form (solid line) and after addition of excess of sodium dithionite, reduced form (dashed line). Inset: SDS-PAGE of purified LbNOX. (FIG. 1C) Simultaneous measurement of NADH and oxygen consumption by LbNOX as assayed in 50 mM NaPi pH 7.5, 150 mM NaCl at 28° C. NADH (500 μM) and LbNOX (1.8 μg) were added as indicated by arrows. (FIG. 1D) Michaelis-Menten analysis of the NAD(P)H oxidase activity of recombinant LbNOX. Inset: values for Vmax and KM for NADH represent the mean±S.D. (error bars) from four independent experiments. (FIG. 1E) The crystal structure of LbNOX. The FAD in stick representation and bound oxygen in red spheres. Inset: The substrate selectivity loops of LbNOX (containing Asp177, Ala178, and Pro184) and glutathione reductase—NADPH complex (containing Arg198 and Arg204) (PDB ID 1GET). Backbone atoms of NAD(P)H binding domains of each protein (residues 147-247 of LbNOX and 167-268 of glutathione reductase) were superimposed using the least square algorithm of COOT. Note that Arg198 and Arg204 of glutathione reductase, which tightly bind the phosphate moiety of NADPH, are replaced in LbNOX with Ala178 and Pro184, respectively. Negatively charged side chain of Asp177 in LbNOX replaces the neutral Val197 of glutathione reductase.
Recombinant LbNOX activity was monitored by following the decrease of the absorbance of NAD(P)H at […] using CARY® 100 spectrophotometer (Agilent, CA). A typical reaction mixture contained 2 μM FAD in 0.5 ml of the assay buffer (50 mM Na2HPO4, pH 7.5, 150 mM NaCl) and was incubated for 4 min at 37° C. before NAD(P)H (2-600 μM) and enzyme (0.08-6.8 μg) were added. Extinction coefficient (ε340=6.2 mM^−1 cm^−1) was used to calculate NAD(P)H oxidase activity. Simultaneous monitoring of oxygen consumption and NADH fluorescence was performed using a custom-built fluorimeter. In our setup the REDEYE™ oxygen patch (OceanOptics) was installed in a cuvette and the optical probe was connected to a fluorimeter. Oxygen causes quenching of the REDEYE™ patch fluorescence which allows to monitor the partial pressure of oxygen. In our experiments 0.5 ml of the assay buffer was preincubated at 28° C. before NADH (40-1500 μM) and LbNOX (0.1-2 μg) were added.

HeLa cells = assay: Oxygen consumption rate (OCR), XF24 extracellular flux analyzer; assay type: cell-based, human; settings: for increase in oxygen consumption: resistance to antimycin: 1 μM antimycin (complex III inhibitor); for increase in oxygen consumption of HeLa cells: doxycycline-inducible expression
Description: Oxygen consumption rates (OCR) of HeLa cells expressing 5 bacterial NOXes (untargeted and targeted to mitochondria) and Luciferase under the control of doxycycline (DOX) inducible promoter (TRE3G) were measured with the XF24 Extracellular Flux Analyzer (Seahorse Bioscience, manufactured in 2008). Cells were seeded at 30-40×10^3 cells per well in XF24 24-well cell culture microplates in 200 μl of DMEM (DMEM (US Biological, […]), 3.7 g/L NaHCO3 and 10% dialyzed FBS (Life Technologies, 26400-044) and were incubated at 37° C. in 5% CO2 incubator. Media was replaced the next day with 1 ml per well and doxycycline (final concentration -300 ng/ml, prepared in water) or water were added to the corresponding wells to induce protein expression. Twenty four hour later, media was replaced with 950 μL of the assay medium (no pyruvate DMEM (US Biological, […]), 15.9 mg/L phenol red, 10% dialyzed FBS (Life Technologies, 26400-044) and 25 mM HEPES-KOH, pH 7.4) and plates were introduced into the […] Extracellular Flux Analyzer for experimental measurements. Each measurement was performed over 4 min after a 2-min mix and a 2-min wait period. Basal measurements were collected 8 times and 4 measurements were collected after injection of oligomycin (final concentration 1 μM), followed by 4 measurements after addition of antimycin A (final concentration 1 μM) from the XF24 ports in 50 μL of the assay medium. Cells were seeded at 30-40×10^3 per well in XF24 24-well cell culture microplates in 200 μl of normal growth media (DMEM (US Biological, […]), 3.7 g/L NaHCO3 and 10% dialyzed FBS (Life Technologies, 26400-044)) and were incubated at 37° C. in 5% CO2 incubator. For all experiments the next day media was renewed with 1 ml per well and doxycycline (final concentration -300 ng/ml) or water were added. Twenty four hours later, media was changed to no pyruvate media (no pyruvate DMEM (US Biological, […]), 15.9 mg/L phenol red, 3.7 g/L NaHCO3 and 10% dialyzed FBS (Life Technologies, 26400-044)). Two hours later, media was replaced with 950 μL of the assay medium (no pyruvate DMEM (US Biological, […]), 15.9 mg/L phenol red, 10% dialyzed FBS (Invitrogen, 26400-044) and 25 mM HEPES-KOH, pH 7.4) and OCR was measured. Each measurement was performed over 4 min after a 2-min mix and a 2-min wait period. Basal measurements were collected 8 times and 4 measurements were collected after injection of each drug: antimycin A (final concentration 1 μM) or piericidin (final concentration 1 μM). Three measurements before and after addition of the drug were averaged and normalized by the cell number.

Molecule	substrate selectivity NADH vs NADPH [1]	specific activity ([1]; after enterokinase cleavage of N-terminal Hisx6 tag) [µmol/min/mg]	specific activity ([1]; fully reconstituted LbNOX (holoLbNOX), peak from Source 15Q, N-terminal Hisx6 tag present) [µmol/min/mg]	Km ([1]; recombinant enzyme, read-out: apparent KM for NADH) [µM]	increase in oxygen consumption: resistance to antimycin (HeLa cells)	increase in oxygen consumption: resistance to piericidin (HeLa cells; 1 μM piericidin (complex I inhibitor))	increase in oxygen consumption of HeLa cells (HeLa cells) [fold]	kcat with NADH [1] [s⁻¹]
LbNOX: water-forming NADH oxidase endogenous to Lactobacillus brevis; tested with C-terminal FLAG tag (protein, listed as Lactobacillus brevis, C-terminal FLAG tag) KVTVVGCTHAGTFAIKQILAEHPDAEVTVYERNDVISFLSCGIALYLGGKVADPQGLFYSSPEELQKLGANVQMNHNVLAIDPDQKTVTVEDLTNHAQTTESYDKLVMTSGSWPIVPKIPGIDSDRVKLCKNWAHAQALIEDAKEAKRITVIGAGYIGAELAEAYSTTGHDVTLIDAMARVMPKYFDADFTDVIEQDYRDHGVQLALGETVESFTDSATGLTIKTDKNSYETDLAILCIGFRPNTDLLKGKVDMAPNGAIITDDYMRSSNPDIFAAGDSAAVHYNPTHQNAYIPLATNAVRQGILVGKNLVKPTVKYMGTQSSSGLALYDRTIVSTGLTLAAAKQQGLNAEQVIVEDNYRPEFMPSTEPVLMSLVFDPDTHRILGGALMSKYDVSQSANTLSVCIQNENTIDDLAMVDMLFQPNFDRPFNYLNILAQAAQAKVAQSVNA	selectively oxidizes NADH over NADPH	~750	~550	69 ± 3	resistant	resistant	1.6	
TPNOX: NADPH-specific quintuple mutant (G159A/D177A/A178R/M179S/P184R) of LbNOX (protein) KVTVVGCTHAGTFAIKQILAEHPDAEVTVYERNDVISFLSCGIALYLGGKVADPQGLFYSSPEELQKLGANVQMNHNVLAIDPDQKTVTVEDLTNHAQTTESYDKLVMTSGSWPIVPKIPGIDSDRVKLCKNWAHAQALIEDAKEAKRITVIGAGYIAAELAEAYSTTGHDVTLIARSARVMRKYFDADFTDVIEQDYRDHGVQLALGETVESFTDSATGLTIKTDKNSYETDLAILCIGFRPNTDLLKGKVDMAPNGAIITDDYMRSSNPDIFAAGDSAAVHYNPTHQNAYIPLATNAVRQGILVGKNLVKPTVKYMGTQSSSGLALYDRTIVSTGLTLAAAKQQGLNAEQVIVEDNYRPEFMPSTEPVLMSLVFDPDTHRILGGALMSKYDVSQSANTLSVCIQNENTIDDLAMVDMLFQPNFDRPFNYLNILAQAAQAKVAQSVNA					resistant		1.7	3.2 ± 0.2
